Usually stoichiometry N stands for a count of units in the complex or per binding partner.

Like-named read-outs stand apart in the source and are kept apart here.

For test [1], the target named is cytochrome f (PetA) with a C-terminal six-histidine tag, F. diplosiphon SF33 (Fremyella diplosiphon SF33). The experiment in a line: co-purification.
Test [2] has the same target. The test is described as follows: co-purification. The source holds these as a separate data set.
The target in test [3] is cytochrome b6f complex of spinach (monomeric unit) (spinach) (UniProt P16013). The experiment in a line: native gel or EMSA. (In EMSA bound probe runs differently from free probe, usually more slowly.)

With “cytochrome b6 (PetB), F. diplosiphon SF33 (natural protein)”, the results for the stoichiometry N (relative to cyt f) in test [1] and in test [2] were 1.09 and 0.69, respectively.
“cytochrome b6f complex of spinach (monomeric unit) (from UniProt P16013 36-320; P00165 1-215; P08980 52-230; P00166 1-160)” returned a stoichiometry N in test [3] of 2.
For the substance “iron-sulfur protein (ISP), full length, F. diplosiphon SF33 (natural protein)”, the stoichiometry N (relative to cyt f) in test [1] is 0.17; in test [2] it was 0.21.
Regarding “subunit IV (PetD), F. diplosiphon SF33 (natural protein)”, the stoichiometry N (relative to cyt f) in test [1] came out at 0.45; in test [2] it was 0.29.

Values taken from PMC4672631.
